Measured values published in the nanobody polyreactivity screen of Harvey et al. (2022).

Assay: yeast display, Sf9 membrane polyspecificity reagent, FACS + sequencing; frameworks hold sequencing errors
In short: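 In a synthetic yeast display library (Saccharomyces cerevisiae BJ5465), nanobody expression was induced with galactose for 36–48 hours. FACS gates were set low and high (top ~1%) using anti-HA fluorescence for expression and streptavidin fluorescence for binding of the Sf9 membrane reagent. Each polyreactivity label is drawn from the gate of origin.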

Sequence | polyreactivity (PSR sort gate)
QVQLVESGGGLVQAGGSLRLSCAASDAMGWYRRAPGKERELVASISNGVSTNYADSVKGRFTISRDNAKNTVYLQMNSLKPEVTAVYYCASDAKTVGRDDLYWYEVEFDYWGQGTQVSVSS | low polyreactivity
QVQLVESGGGLVQAGGSLRLSCAASESIFVRNAMGWYRQAPGKERELVASITYSGSRTYYADSVKGRFTISRDNAKNTVYLQMNRLKPEDTAVYYCAKVRVLVDKWSTFYEYYYWVQGTQVTVSS | low polyreactivity
QVQLVESGGGLVQAGGSLRLSCAASGAIFDWYAMGGDRPAPGKERELVADITWSGDSTYYADSVKGRFTISRDHAKNTVYLKMNSLKPEDTAVFYCAADIWFYTYYEYDYWGQGTQVTVSS | high polyreactivity
QVQLVESGGGLVQAGGSLRLSCAASGAIFFFNAMGWYRQAPGKEREFVAAITSSSGRTYYADSVKGRFTISRDNAKNSVYLQMNSLKPEDTAVYSCDADWAWLQWAYDYWGQGTKVTVSS | low polyreactivity
QVQLVESGGGLVQAGGSLRLSCAASGAIFGGYAMGWYRQAPGKERELVAAISSGGSTNYADSVKGRFTISRDNAKNTVYLQMNSLKPEDTAVYYCAVRGRLPHARQRGYVPKYYYWGQGTQVTVSS | high polyreactivity
QVQLVESGGGLVQAGGSLRLSCAASGCTFPLYLMGWYRQAPGKERELVAAIDWSGGSTYYADSVKGRFTISRDNAKNTVYLQMNSLKPEDTAVYYCAARYTSLRNYGYDYWGQGTQVTVSS | low polyreactivity
QVQLVESGGGLVQAGGSLRLSCAASGDISYIYAMGWYRQAPGKEREMVADISSSVGNTYYADSVKGRFTISRDNAKNTVYLQMNSLKPEDTAVYYCNADYVQPTESGGTYDYWGQGTQVTVSS | low polyreactivity
QVQLVESGGGLVQAGGSLRLSCAASGDIYDAYAMGWYRQAPGKERELVAAISRSGGSTYYSDSVKGRFTISRDNAKNTVYLLMNSLKPEDTAVYYCATRFSRRYVRYDYWGQGTQVTVSS | high polyreactivity
QVQLVESGGGLVQAGGSLRLSCAASGDTFPKYAMGWYRQAPGKERELVAAITKRGGRTYYADSVKGRFTISRDNAKNTVYLQMNRVKPEDTAVYYCAVDLDGPEYSQVHYDYWGQGTQVTVSS | high polyreactivity
QVQLVESGGGLVQAGGSLRLSCAASGFAFSYYAMGWYRQAPGKEREFVASIDWSGGSTYYADSVKGRFTISRDNAKNIVYLQMNSLKPEDTAVYYCAAELDYFPGYDYWGQGTQVTVSS | low polyreactivity
QVQLVESGGGLVQAGGSLRLSCAASGFIFADYAMGWYRQAHGKERELVAAITRSGGRTYYADSVKGRFTISRDTAKNTVYVQMNSLKPDDTAVYYCNAGYAHTYDYWGQGTQVTVSS | high polyreactivity
QVQLVESGGGLVQAGGSLRLSCAASGFIFAEYAMGWYRQAPGKERELVATINIGGSTYYADSVKGRFTISRDNAKNTVYLQMTSLKPEDTAVYYCAAEFWWGDGSQGIYDYDYWGQGTQVSVSS | low polyreactivity
QVQLVESGGGLVQAGGSLRLSCAASGFIFAGYAMGWYRQAPGKERELVAAISGSGGRTYYADSVKGRFTISRDNAKNTVYLQMNSLKPEDTAVYYCNAGKQYRYDWGQGTQVTVSS | high polyreactivity
QVQLVESGGGLVQAGGSLRLSCAASGFIFAPNAMGWYRQAPGKERELVAAISHSGASTFYADSVKGRFTISRDNAKNTVYLQMNSLKPEDTAVYYCAAPPYYSYDYWGQGTQVTVSS | low polyreactivity
QVQLVESGGGLVQAGGSLRLSCAASGFIFAPYAMGWYRQAPGKEREFVASITYGSDSTYYADSVKGRFTISRDNAKNTVYLQMNSLKPEDTAVYYCNREGWHYGPYGYWGQGTQVTVSS | low polyreactivity
QVQLVESGGGLVQAGGSLRLSCAASGFIFARNTMGWYRQAPGKERELVAAITKSGGSTNYADSVKGRFTISRDNAKNTVYLQMNSLKPEDTAVYYCAARTYTLRGVYFSGYNYWGQGTQVTVSS | low polyreactivity
QVQLVESGGGLVQAGGSLRLSCAASGFIFARYAMGWYRQAPGKERELVARITTGDSTYYADSVKGRFTISRDNAKNTVYLQMNSLKPEDTAVYYCAADDNVSVVGLYYWGQGTQVTVSS | low polyreactivity
QVQLVESGGGLVQAGGSLRLSCAASGFIFARYAMGWYRQAPGKERELVATISKSGGRTYYADSVKGRFTISRDNAKNTVYLQMNSLKPEDTAVYYCATRYSTTSPGDDYWGQGTQVTVSS | high polyreactivity
QVQLVESGGGLVQAGGSLRLSCAASGFIFASYAMGWYRQAPVKERELVAAISSCGGRTYYADSVKGRFTISRDNAKNTVNLQMNSLKPEDTAVYYCAADWRFTYDYWGQGTQVTVSS | high polyreactivity
QVQLVESGGGLVQAGGSLRLSCAASGFIFASYAMGWYRQATGKERELVAAITQSGGITYYADSVKGRFTISRDNAKNTVYLQMNSLKPEDTAVYYCNTPLMKRTTRGRERNYWGQGTQVTVSS | low polyreactivity
QVQLVESGGGLVQAGGSLRLSCAASGFIFASYTMGWYRQAPGKERELVASISRRRGSTYYADSVKGRFTISRDIAKNTVYLQMNILKPEDTAVYYCAAERLTIDYDYWGQGTQVTVSS | high polyreactivity
QVQLVESGGGLVQAGGSLRLSCAASGFIFATNAMGWYIQAPGKERELVAAITWSGATTYYADSVKGRFTISRDNAKNTVYLQMNSLKPEDTAVYYCAARRYVYGSPYSTYRYGYWGQGTQVTVSS | high polyreactivity

Sequence | polyreactivity (PSR sort gate)
QVQLVESGGGLVQAGGSLRLSCAASGFIFATNPMGWYRQAPGKERELVAASSTYYADSVKGRFTISRDNAKNTVYLQMNSLKPEDTAVYYCNADRDSYIGFVDWAGEYWGQGTQVTVSS | low polyreactivity
QVQLVESGGGLVQAGGSLRLSCAASGFIFATYAMGWYRQAPGKDRELVAAISRSGGSTYYADSVKGRFTISRDTAKNTVYSQMNCLKPEDTAVYYCAADSDPAPPDYDYWGQGTQVTVSS | high polyreactivity
QVQLVESGGGLVQAGGSLRLSCAASGFIFATYDMGWYRQAPGKERELVAAIDSDGSTNYADSVKGRYTISRDNAKNTVYLQMNSLKPEDTEVYYCAADRFQWGFWWLEYWGQGTQVTVSS | high polyreactivity
QVQLVESGGGLVQAGGSLRLSCAASGFIFATYVMGWYRQAPGKERELVAAISWSGSSTFYADSVKGRFTISRDNAKNTVYLQMNSLKPEDTAVYYCAALGDYVGNDYWGQGTQVTVSS | high polyreactivity
QVQLVESGGGLVQAGGSLRLSCAASGFIFAYNAMGWYRQAPGKERELVAAISIDTSTYYADSVKGRFTISRDNAKNTVYLQMNSLKPEDTAVYYCAADHVPFRLTELYYWGQGTQVTVSS | low polyreactivity
QVQLVESGGGLVQAGGSLRLSCAASGFIFAYYAMGWYRQAPGKERELVAAISSSGGRTYYADSVKGRFTISRDNAKNTVYLQMNSLQPEDTAVYYCAATLSYYVGVRYDYWGQGTQVTVSS | high polyreactivity
QVQLVESGGGLVQAGGSLRLSCAASGFIFAYYAMGWYRQAPGKERELVAAITIDGSTNYADSVKGRFTISRDNAKNTVYVQMNSLKPEDSAVYYCAAAEHPPVWYGYWGQGTQVTVSS | low polyreactivity
QVQLVESGGGLVQAGGSLRLSCAASGFIFAYYAMGWYRQAPGKERELVAGNSGDGSTNYADSVKGRFTISRDNAKNTVYLQMNSLKPEDTAVYYCAAATGVGLEYDYWGQGTQVTVSS | low polyreactivity
QVQLVESGGGLVQAGGSLRLSCAASGFIFAYYAMGWYRQAPGKERELVARITRGGRTYYADSVKGRFTISRDNAKNTVYLQMNSLKPEDTAVYYCATTGSSYFHSFEYDYWGQGTQVTVSS | low polyreactivity
QVQLVESGGGLVQAGGSLRLSCAASGFIFAYYVMGWYRQAPGKERELVAAISRGGGSTYYADSVKGRFTISRDNAKNTVYLQMNSLKPEDTAVYYCATYSHALRYDYWGQGTQVTVSS | high polyreactivity
QVQLVESGGGLVQAGGSLRLSCAASGFIFDAYAMGWYRQAPGKERELVAAISSRGGSTYYADSVKGRFTISRDNAKNTVYLQMNSLKPEDTAVYYCAAPWYQGLDYWGQGTQVTVSS | high polyreactivity
QVQLVESGGGLVQAGGSLRLSCAASGFIFDDNAMGWNRQAHGKERELVAAITSGGGSTYYADSVKGRFTISRDNAKNTVYLQLNSLKPEDTAVYYCNAVPSQHDEFDYWGQGTQVSVSS | low polyreactivity
QVQLVESGGGLVQAGGSLRLSCAASGFIFDFYTIGWYRQAPGKEWELVAAITNGGSTYYADSVKGRFTISRVNAKNTVYLQMNSLKPEDTAVYYCAAYYRSRHHGYDSWGQGTQVTVSS | low polyreactivity
QVQLVESGGGLVQAGGSLRLSCAASGFIFDGYAMGWYRQAPGKERELVAAIDSGGDRTYYADSVKGRFTISRDNAMNTVYLQMNSLKPEDTAVYYCAADSSDPTGYDYWGQGTQVTVSS | low polyreactivity
QVQLVESGGGLVQAGGSLRLSCAASGFIFDGYTMGRYRQAPGKERELVAAISRSGGRTYYADSVKGRFRISRDNAKNTVYLQMNSLKPEDTAVYYCAVRYRLYSQTVASDYGYWGQGTQVTVSS | high polyreactivity
QVQLVESGGGLVQAGGSLRLSCAASGFIFDGYTMGWYRQAPGKERELVAAISRSGGRTYYADSVKGRFTISRDNAKNTVYLQMNSLKPEDTAVYYCAVRYRQYSQTVASDYGYWGQGTQVTLSS | high polyreactivity
QVQLVESGGGLVQAGGSLRLSCAASGFIFDIYAMGWYRQAPGKERELVAAITWNSGSTHYADSVKGRITISRDNAKNTVYLQMNSLKPEDTAVYYCAADEVTYAYYPYDYWGQGTQVTVSS | low polyreactivity
QVQLVESGGGLVQAGGSLRLSCAASGFIFDLYAMGWSRQAPGKERELVAVISFDGGSTYYADSVKGRFTISRDNAKNTVYLQMNSLKPEDTAVYYCNTYAGLVSPSDLYDYWGQGTQVTVSS | low polyreactivity
QVQLVESGGGLVQAGGSLRLSCAASGFIFDNNAMGWYRQAPGKEREFVAAISGSGGSTYYADSVKGRFTISRDNAKNTVYLQMNSLKPEDTAVYYCAAPIPDYTYIYPAYDDYWGQGTQVTVSS | low polyreactivity
QVQLVESGGGLVQAGGSLRLSCAASGFIFDPYAMGWYRQAPGTERELVASINTRGDRTSYADSVKGRFTISRDNAKNTVYLQMNSLKPEDTAVYYCNADAVDQVGPDDDYWGQGTQVTVSS | low polyreactivity
QVQLVESGGGLVQAGGSLRLSCAASGFIFDQYAMGWYRQAPGKERELVATINWSGGRTYYADSVKGRFTISRDNAKNTVYLQMNSLKPEDTAVYYCAADTYRTKLHSFRTGSGYDYWGQGTQVTVSS | low polyreactivity
